Experimental data from patent US6623741B1, “Methods and compositions for inhibition of membrane fusion-associated events including RSV transmission” (Trimeris, Inc., priority 2000, dated 2003).

Tests used:
[1] = Circular dichroism spectroscopy (helicity, thermal stability); assay type: physicochemical
Method: Circular Dichroism Spectroscopy:
Circular Dichroism (CD) spectra were obtained using an AVIV Associates 62DS spectrometer equipped with a thermoelectric temperature controller. Spectra were obtained in 0.1, 0.5 and 1.0 cm quartz cells at 1° C. with 0.5 nm steps from 200 to 260 nm, 1.5 nm bandwidth and an averaging time of 4 sec/step. After the cell/buffer blank was subtracted, spectra were smoothed using a third-order least-squares polynomial fit with a conservative (5-10 point) window size to give random residuals. Mixing experiments were performed by comparing the spectrum of the two peptides mixed together in a 0.1 cm path length cell at the desired concentrations (referred to herein as the “experimental” spectrum) to the sum of the individual spectra of the peptides, each solution in a 0.1 cm path length cell (referred to herein as the “model spectrum” for no peptide interaction or “model for no interaction”).
Raw ellipticity values were converted to mean residue ellipticity using standard methods (Cantor & Schimmel, 1980, Biophysical Chemistry Part II: Techniques for the Study of Biological Structure and Function, W.H. Freeman and Co., New York). Conversions for the mixing experiment spectra were performed using a peptide length corresponding to the average of the two peptides. Thermal stability measurements were performed in 2° C. steps, with 1 minute equilibration times. Spectra were smoothed, converted to mean residue ellipticity, and the corresponding value at 222 nm noted from each spectrum. Percent helicity values were calculated using single value decomposition with a basis set of 33 protein spectra (Johnson & Curtis, 1990, Proteins: Structure, Function and Genetics 7:205-214).

[2] = Analytical ultracentrifugation (sedimentation equilibrium); assay type: physicochemical
Method: Analytical Ultracentrifugation:
Sedimentation equilibrium experiments were performed on a Beckman Optima XL-A analytical ultracentrifuge at 4° C. Six-channel cells (12 mm optical path length) were used with an An-60 Ti rotor operated at 13,500, 16,000, 17,000, 20,000, 21,000, 24,000, 25,000, 27,500, 30,000 and 35,000 rpm. The cell radii were scanned using 0.001 cm steps with 10 averages/scan. Data were analyzed using Beckman XLA data analysis software (version 3.01 for Windows) and Beckman-Origin software (version 3.78 for Windows). […] The partial specific volumes were held constant for all models considered.
Single data files were normalized to 270 nm absorbance values using Beer's Law. The data obtained with solutions containing the DP107-like peptides were then analyzed using a single ideal species model to determine a weight-averaged molecular weight (Mw). Diagnostic plots of Mw/Mw0 vs. rpm/rpm0 and Mw vs. radial concentration were used to test for sample homogeneity as described, e.g., by McRorie & Voelker, 1993, Self-Associating Systems in the Analytical Ultracentrifuge, Beckman Instruments, Inc., Palo Alto; and Yphantis et al., 1978, in Physical Aspects of Protein Interactions: Proceedings of the Symposium on Protein Interactions, American Chemical Society Meeting, Catsimpoolas, Ed., pp. 275-303, Elsevier, Miami Beach, Fla. When systematic residuals or a Mw higher than the monomer molecular weight indicated the presence of self-association, associative models such as monomer/trimer, monomer/tetramer and monomer/dimer/tetrarner were investigated. The suitability of a particular model (i.e., the goodness of fit) was judged by the trends observed in the residuals (Johnson & Straume, 1994, in Modern Analytical Ultracentrifugation, Schuster et al., eds., pp. 37-65, Birkhauser, Boston). Using the associative model which produced random residuals when fitting individual data files, a simultaneous, global, weighted fit of multiple data files (up to nine files with different concentrations and speeds) was performed to determine the association constant and 95% confidence intervals. To convert the resulting association constant from absorbance units to concentration units, it was assumed that the absorbance of the n-mer is n times that of the monomer.
The data obtained with DP107-like/DP178-like peptide mixtures were first analyzed with a single ideal species model. When a systematic trend in residuals coupled with the Mw not equal to a precise multimer of HR1+HR2 were obtained, and alternate fitting scheme was explored. For this approach, it was assumed that the solution contained fully associated HR1-HR2 complexes and unassociated DP107-like and DP178-like peptides. The mixtures were analyzed with a two-ideal species model, choosing one species to have a molecular weight of either 28,269 Da (corresponding to three DP107-like plus three DP178-like peptides) or […] (corresponding to four DP107-like plus four DP178-like peptides).

M41Δ178 fusion protein = test: T83 ELARA (Biot-T20) IC50 Conc. (nM)
Description: Table printed on a drawing sheet, FIG.24A
Head of the field: T83 ELARA (Biot-T20) IC50 Conc. (nM)
The patent's description of the figure: FIGS. 24A-B: Circular dichroism, cell fusion and competitive inhibition data for alanine walk experiments for the peptide T20, which is also known as DP178.
First copying reader's note: The table breaks off at the bottom of the sheet and continues on FIG. 24B; substituted alanine residues are printed in bold, and the T1342 FP column is empty on this sheet.

[3] = system: HIV-1 (HIV-1LAI, HIV-1MN, HIV-1RF, HIV-1SF2); assay type: cell-based; details: lowest concentration tested, FIG. 4B
Method: Approximately 7×10^4 Molt cells were incubated with 1×10^4 CEM cells chronically infected with the HIV-1LAI virus in 96-well plates (one-half area cluster plates; Costar, Cambridge, Mass.) in a final volume of 100 μl culture medium as previously described (Matthews, T. J. et al., 1987, Proc. Natl. Acad. Sci. USA 84: 5424-5428). Peptide inhibitors were added in a volume of 10 μl and the cell mixtures were incubated for 24 hr. at 37° C. At that time, multinucleated giant cells were estimated by microscopic examination at a 40× magnification which allowed visualization of the entire well in a single field.
The initial screen for antiviral activity assayed peptides' ability to block syncytium formation induced by overnight co-cultivation of uninfected Molt 4 cells with chronically HIV-1 infected CEM cells. […] In the first of these experiments, serial DP178 (SEQ ID NO:15) peptide concentrations between 10 μg/ml and 12.5 ng/ml were tested for blockade of the cell fusion process. For these experiments, CEM cells chronically infected with either HIV-1LAI, HIV-1MN, HIV-1RF, or HIV-1SF2 virus were cocultivated overnight with uninfected Molt 4 cells.
The next series of experiments involved the preparation and testing of a DP178 (SEQ ID NO:15) homolog for its ability to inhibit HIV-1-induced syncytia formation.
The next series of experiments involved a comparison of DP178 (SEQ ID NO:15) HIV-1 and HIV-2 inhibitory activity.

| Substance | %-Helicity ([1]; 35 μM peptide, PBS pH 7) | Tm (midpoint of melting transition) ([1]; 35 μM peptide, PBS pH 7) | IC50 (RSV) | N-mer (weight-averaged molecular weight divided by monomer molecular weight) ([2]; 35 μM) | IC50 (M41Δ178 fusion protein) | other results |
| --- | --- | --- | --- | --- | --- | --- |
| AVSKVLHLEGEVNKIKSALLSTNKAVVSLSNGVSVLTSKVLDLKNYIDKQ (Ac-AVSKVLHLEGEVNKIKSALLSTNKAVVSLSNGVSVLTSKVLDLKNYIDKQ-NH2) [Peptide T1772, RSV DP107-like peptide, residues 153-202 of the RSV F-protein] | 83% | 42 °C | – | – | – | %-Helicity ([1]; 1 μM T1772): 67%; Tm ([1]; 1 μM T1772): 30 °C; %-Helicity ([1]; 10 μM T1772): 80%; Tm ([1]; 10 μM T1772): 32 °C; %-Helicity ([1]; 50 μM T1772): 84%; Tm ([1]; 50 μM T1772): 42 °C; %-Helicity ([1]; 100 μM T1772): 90%; Tm ([1]; 100 μM T1772): 46 °C; oligomerization state in solution (in words) [2]: trimeric self-association; N-mer (weight-averaged molecular weight divided by monomer molecular weight) ([2]; 25 μM determination): 2.4; Mw, single ideal species model, single data set ([2]; 100 μM, 24,000 rpm): 12,925 Da; average Mw relative to the monomer molecular weight ([2]; average over concentrations): 2.4 times |
| Ac-AVSKVLHLEGEVNKIKSALLSTNKAVVSLSNGVSVLTSKVLDLKNYIDKQL-NH2 (N-terminus and C-terminus assumed) [Peptide T1584] | 90% | 53 °C | 0.23 µg/mL | 2.1 | – | – |
| Ac-SGVAVSKVLHLEGEVNKIKSALLSTNKAVVSLSNGVSVLTSKVLDLKNYIDKQL-NH2 (N-terminus and C-terminus assumed) [Peptide T1623] | 88% | 55 °C | 0.80 µg/mL | 2.2 | – | – |
| Ac-SKVLHLEGEVNKIKSALLSTNKAVVSLSNGVSVLTSKVLDLKNYIDKQ-NH2 [Peptide T1583] | – | – | 1.09 µg/mL | – | – | – |
| Ac-VLHLEGEVNKIKSALLSTNKAVVSLSNGVSVLTSKVLDLKNYIDKQ-NH2 (N-terminus and C-terminus assumed) [Peptide T1581] | 69% | 31 °C | 3.36 µg/mL | 1.8 | – | – |
| Ac-YTSLIHSLIEESQNQQEKNEQAAAELDKWASLWNWF-NH2 [T872] | – | – | – | – | 66 nM | – |
| Ac-YTSLIHSLIEESQNQQEKNEQELLELDKWAAAANWF-NH2 [T869] | – | – | – | – | 57 nM | – |
| T871: T20 with three consecutive residues changed to three alanine residues (YTSLIHSLIEESQNQQEKNEQELLAAAKWASLWNWF) [Peptide T871] | – | – | – | – | 1160 nM | – |
| T876: T20 with three consecutive residues changed to three alanine residues (YTSLIHSLIAAAQNQQEKNEQELLELDKWASLWNWF) [Peptide T876] | – | – | – | – | 29 nM | – |
| T1582: RSV HR1 (DP107-like) peptide of FIG. 28, shorter than T1581 (Ac-VLHLEGEVNKIKSALLSTNKAVVSLSNGVSVLTSKVLDLKNYIDK-NH2) [Peptide T1582] | 49% | 22 °C | – | 1.5 | – | – |
| T1590: RSV HR1 (DP107-like) peptide of FIG. 28, shorter than T1581 (Ac-VLHLEGEVNKIKSALLSTNKAVVSLSNGVSVLTSKVLDLKNYI-NH2) [Peptide T1590] | 10% | <10 °C | – | – | – | – |
| YTNTIYTLLEESQNQQEKNEQELLELDKWASLWNWF [DP-185] | – | – | – | – | – | concentration exhibiting inhibitory activity on HIV-1-induced syncytia formation [3]: ≤ 312.5 ng/mL |
